Where no end group is shown, it is not given here. [ ]: non-standard residue; d: D form. 2Thi = N[C@@H](Cc1cccs1)C(=O)O
B1: Lys-BKm01-YNHS10K (peptide)
peptide: KRPPGXSPFR
modifications: {THI} (β-2-thiophenylalanine) at position 6; N-terminal single modification with M-YNHS-10K (branched-chain mPEG succinimidyl acetate, about 10 kDa)
B2: Lys-BKm01-SPA10K (peptide)
peptide: KRPPGXSPFR
modifications: {THI} (β-2-thiophenylalanine) at position 6; N-terminal single modification with M-SPA-10K (straight-chain mPEG succinimidyl propionate, about 10 kDa)
B3: Lys-BKm06 (peptide)
peptide: KRPPGXSPFRR
modifications: {THI} (β-2-thiophenylalanine) at position 6: KRPPG{THI}SPFRR
B4: Lys-BKm04 (peptide)
peptide: KRPPGFSPHR
B5: Lys-BKm01 (peptide)
peptide: KRPPGXSPFR
modifications: {THI} (β-2-thiophenylalanine) at position 6: KRPPG{THI}SPFR
B6: Lys-BKm12 (peptide)
peptide: KRPPG[2Thi]SPFRRPPG[2Thi]SPFR
B7: Lys-BKm03 (peptide)
peptide: KRPPGHSPFR
B8: Lys-BKm07 (peptide)
peptide: KRPPGXSPXR
modifications: {THI} (β-2-thiophenylalanine) at positions 6 and 9: KRPPG{THI}SP{THI}R
B9: Lys-BK (wild-type lysyl bradykinin) (peptide)
peptide: KRPPGFSPFR
B10: Lys-BKm14 (peptide)
peptide: KRPPG[2Thi]SPFRKRPPG[2Thi]SPFR

molecular target: B2 receptor; assay: cell-based or functional assay
Sequence (P30411 whole entry): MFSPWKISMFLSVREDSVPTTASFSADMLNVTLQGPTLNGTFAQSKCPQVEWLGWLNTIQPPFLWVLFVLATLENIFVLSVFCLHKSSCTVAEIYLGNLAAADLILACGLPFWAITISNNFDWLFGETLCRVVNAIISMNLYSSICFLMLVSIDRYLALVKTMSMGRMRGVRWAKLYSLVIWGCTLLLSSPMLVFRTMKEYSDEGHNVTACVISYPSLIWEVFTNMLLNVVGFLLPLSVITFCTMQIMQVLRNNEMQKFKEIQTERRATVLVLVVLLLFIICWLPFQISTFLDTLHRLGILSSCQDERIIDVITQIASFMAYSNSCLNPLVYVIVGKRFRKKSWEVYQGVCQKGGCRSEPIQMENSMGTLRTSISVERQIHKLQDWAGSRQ

| Binder | EC50 value (B2 receptor reporter gene assay, FIG. 4a) [µg/mL] | fold activity against Lys-BKm01-YNHS10K (B2 receptor reporter gene assay) [fold] |
| --- | --- | --- |
| B1 | 347 |  |
| B2 | 90.8 | ~4 |

molecular target: B2 receptor; assay: cell-based or functional assay; remark: another data set of the same source

| Binder | Relative affinity activity (B2-NFAT-CHO-K1 luciferase reporter gene assay, from EC50) [%] |
| --- | --- |
| B3 | 90 |
| B4 | < 10 |
| B5 | 100 |
| B6 | 100 |
| B7 | < 10 |
| B8 | < 10 |
| B9 | 100 |
| B10 | 100 |

Reference: patent publication US20250295792A1 (ZONHON BIOPHARMA INSTITUTE, published 2025)
